In PMC7083938, “NELL2-Robo3 complex structure reveals mechanisms of receptor activation for axon guidance” (Nature Communications, 2020):
Values joined by “and” are separate entries in the source; they are usually repeats but may differ in a detail not shown here. Identical values can stand only once.

B1: full-length mouse NELL2 (ligand, UniProt Q61220 25-819, looked up)
chain: LGVDPSLQIDVLTELELGESTDGVRQVPGLHNGTKAFLFQESPRSIKASTATAERFFQKLRNKHEFTILVTLKQIHLNSGVILSIHHLDHRYLELESSGHRNEIRLHYRSGTHRPHTEVFPYILADAKWHKLSLAFSASHLILHIDCNKIYERVVEMPSTDLPLGTTFWLGQRNNAHGYFKGIMQDVHVLVMPQGFIAQCPDLNRTCPTCNDFHGLVQKIMELQDILSKTSAKLSRAEQRMNRLDQCYCERTCTVKGTTYRESESWTDGCKNCTCLNGTIQCETLVCPAPDCPPKSAPAYVDGKCCKECKSTCQFQGRSYFEGERNTVYSSSGMCVLYECKDQTMKLVENIGCPPLDCPESHQIALSHSCCKVCKGYDFCSEKHTCMENSVCRNLNDRAVCSCRDGFRALREDNAYCEDIDECAEGRHYCRENTMCVNTPGSFMCICKTGYIRIDDYSCTEHDECLTNQHNCDENALCFNTVGGHNCVCKPGYTGNGTTCKAFCKDGCRNGGACIAANVCACPQGFTGPSCETDIDECSEGFVQCDSRANCINLPGWYHCECRDGYHDNGMFAPGGESCEDIDECGTGRHSCTNDTICFNLDGGYDCRCPHGKNCTGDCVHEGKVKHTGQIWVLENDRCSVCSCQTGFVMCRRMVCDCENPTVDLSCCPECDPRLSSQCLHQNGETVYNSGDTWVQDCRQCRCLQGEVDCWPLACPEVECEFSVLPENECCPRCVTDPCQADTIRNDITKTCLDEMNVVRFTGSSWIKHGTECTLCQCKNGHLCCSVDPQCLQEL
modifications: biotin (NHS-Biotin) where captured on the SA chip for SPR
notes: NELL2, mouse; called full-length; the methods say that mature domains were cloned into pAcGP67A; Trimer by MALS; also called mNELL2; mNELL2 ectodomain; source: High Five cells (baculovirus), secreted, purified (Ni-NTA, SEC); not shown: His6, C-terminal, kept
B4: mouse Robo1 ectodomain (domain or fragment, UniProt O89026 20-858, looked up)
chain: SRLRQEDFPPRIVEHPSDLIVSKGEPATLNCKAEGRPTPTIEWYKGGERVETDKDDPRSHRMLLPSGSLFFLRIVHGRKSRPDEGVYICVARNYLGEAVSHNASLEVAILRDDFRQNPSDVMVAVGEPAVMECQPPRGHPEPTISWKKDGSPLDDKDERITIRGGKLMITYTRKSDAGKYVCVGTNMVGERESEVAELTVLERPSFVKRPSNLAVTVDDSAEFKCEARGDPVPTVRWRKDDGELPKSRYEIRDDHTLKIRKVTAGDMGSYTCVAENMVGKAEASATLTVQEPPHFVVKPRDQVVALGRTVTFQCEATGNPQPAIFWRREGSQNLLFSYQPPQSSSRFSVSQTGDLTITNVQRSDVGYYICQTLNVAGSIITKAYLEVTDVIADRPPPVIRQGPVNQTVAVDGTLILSCVATGSPAPTILWRKDGVLVSTQDSRIKQLESGVLQIRYAKLGDTGRYTCTASTPSGEATWSAYIEVQEFGVPVQPPRPTDPNLIPSAPSKPEVTDVSKNTVTLSWQPNLNSGATPTSYIIEAFSHASGSSWQTAAENVKTETFAIKGLKPNAIYLFLVRAANAYGISDPSQISDPVKTQDVPPTSQGVDHKQVQRELGNVVLHLHNPTILSSSSVEVHWTVDQQSQYIQGYKILYRPSGASHGESEWLVFEVRTPTKNSVVIPDLRKGVNYEIKARPFFNEFQGADSEIKFAKTLEEAPSAPPRSVTVSKNDGNGTAILVTWQPPPEDTQNGMVQEYKVWCLGNETKYHINKTVDGSTFSVVIPSLVPGIRYSVEVAASTGAGPGVKSEPQFIQLDSHGNPVSPEDQVSLAQQISDVVRQP
notes: Robo1, mouse, ectodomain; Mostly dimeric, in equilibrium with monomer and higher oligomers; also called mRobo1 ectodomain; mRobo1; source: High Five cells (baculovirus), secreted, purified (Ni-NTA, SEC)

Experiments:
[1] = biological target: the molecule itself; assay: SEC-MALS; Wyatt HELEOS II coupled to an AKTA FPLC, Superose Increase 6 10/300, HBS; Zimm model
mouse Robo1 ectodomain = biological target: B4; assay: SPR; mRobo1 ectodomain on a CM5 chip by random amine coupling (~1,200 R.U.); mNELL2 as analyte; KD from equilibrium responses assuming 50 to 100% active surface; buffer as for the other SPR experiments, 25 °C; conditions: both partners purified
mouse Robo1 FN1–3 = biological target: T1, mouse Robo1 FN1–3 (mouse, UniProt O89026 524-835, biotin on the N-terminal amine (NHS-Biotin at pH 6.5)); assay: SPR; mRobo1 FN1–3 biotinylated at the N-terminal amine (NHS-Biotin, pH 6.5), 315 RU captured on a Biacore SA chip; mNELL2 EGF1–6 as analyte; Langmuir isotherm; conditions: both partners purified
T1 construct: Robo1, mouse, FN domains 1-3; also called mRobo1 FN1–3; source: High Five cells (baculovirus), secreted, purified (Ni-NTA, SEC)
T1 sequence (looked up): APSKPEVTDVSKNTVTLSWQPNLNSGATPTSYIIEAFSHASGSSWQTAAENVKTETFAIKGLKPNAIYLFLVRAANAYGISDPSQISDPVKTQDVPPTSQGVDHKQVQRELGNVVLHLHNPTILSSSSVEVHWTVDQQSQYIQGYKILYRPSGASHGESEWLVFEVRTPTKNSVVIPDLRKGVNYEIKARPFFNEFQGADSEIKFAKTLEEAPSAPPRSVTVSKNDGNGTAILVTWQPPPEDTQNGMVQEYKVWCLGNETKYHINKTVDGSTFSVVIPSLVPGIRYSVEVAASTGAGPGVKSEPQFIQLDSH

[2] = biological target: T2, biotinylated human Robo3 FN1–3 (Avi-tagged) (human, UniProt Q96MS0 558-869, biotin on the Avi-tag (BirA)); assay: SPR; biotinylated hRobo3 FN1–3 captured on an NLC (neutravidin) chip, ProteOn XPR36; NELL EGF constructs as analyte; 25 °C, 10 mM HEPES pH 7.2, 150 mM NaCl, 0.05% Tween-20, 0.1% BSA; equilibrium responses, 1:1 Langmuir model; conditions: both partners purified
T2 construct: Robo3, human, FN domains 1-3; also called biotinylated hRobo3 FN1–3; hRobo3 FN1–3; source: High Five cells (baculovirus), secreted, purified (Ni-NTA, SEC), biotinylated with BirA
T2 sequence (looked up): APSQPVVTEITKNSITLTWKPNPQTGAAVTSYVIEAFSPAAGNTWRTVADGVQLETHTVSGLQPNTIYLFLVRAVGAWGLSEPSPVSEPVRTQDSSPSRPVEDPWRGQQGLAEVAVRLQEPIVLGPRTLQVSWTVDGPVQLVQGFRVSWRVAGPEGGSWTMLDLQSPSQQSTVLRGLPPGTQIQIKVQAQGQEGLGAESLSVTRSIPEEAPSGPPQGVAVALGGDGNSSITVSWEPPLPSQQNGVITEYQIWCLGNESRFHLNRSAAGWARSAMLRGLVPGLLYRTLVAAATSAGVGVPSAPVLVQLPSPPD

[3] = biological target: the molecule itself; assay: AUC; sedimentation velocity, 20 °C, c(s) analysis in SEDFIT; single concentration 2.5 µM mRobo1 and 1.8 µM mRobo3 at 200,000 g, and concentration series (mRobo3 up to 20 µM)
full-length mouse NELL2 = biological target: B1; assay: SEC; complex of full-length mNELL2 and mRobo3 FN1 purified by SEC; peak fractions quantified in triplicate by western blot against the His6 tag with 1:1 molar standards; conditions: both partners purified

## B1
[1]
  stoichiometry N: 3
Mouse Robo1 ectodomain
  Kd: ~350 µM and 190 to 400 µM

B2: mouse NELL2 EGF1–6, wild type (domain or fragment)
chain: not shown
notes: NELL2, mouse, EGF domains 1-6; also called mNELL2 EGF1–6 WT; mNELL2 EGF1–6; source: High Five cells (baculovirus), secreted, purified (Ni-NTA, SEC)
Mouse Robo1 FN1–3
  Kd: 14 µM

B3: human NELL2 EGF domains 1-6 (domain or fragment)
chain: not shown
notes: NELL2, human, EGF domains 1-6; also called hNELL2 EGF1–6; NELL2 EGF1–6; source: High Five cells (baculovirus), secreted, purified (Ni-NTA, SEC)
[2]
  Kd: 0.6 µM

## B4
[3]
  stoichiometry N: 2

B5: mouse Robo3 FN1 domain (domain or fragment, UniProt Q9Z2I4 558-652, looked up)
chain: PPSQPIVTEVTANSITLTWKPNPQSGATATSYVIEAFSQAAGNTWRTVADGVQLETYTISGLQPNTIYLFLVRAVGAWGLSEPSPVSEPVQTQDS
notes: Robo3, mouse, FN1 domain; also called mRobo3 FN1; source: High Five cells (baculovirus), secreted, purified (Ni-NTA, SEC); not shown: His6, C-terminal, kept
full-length mouse NELL2
  stoichiometry N: 3 mRobo3 FN1 per mNELL2 trimer
